According to patent US20160333062A1 (REGENTS OF THE UNIVERSITY OF COLORADO A BODY CORPORATE, published 2016):
Non-standard residues stand in square brackets, D forms with d. No end group written: not given here.

B1: Control C (peptide)
peptide: Ac-ELEKGGLEGEKGGKELEK-NH2
notes: also called control peptide C; random coil control peptide (C)
B2: D-Piscidin 1 V12K (peptide)
peptide: [dF][dF][dH][dH][dI][dF][dR]G[dI][dV][dH][dK]G[dK][dT][dI][dH][dR][dL][dV][dT]G-NH2
modifications: N-terminus assumed
SMILES: CC[C@@H](C)[C@@H](NC(=O)CNC(=O)[C@@H](CCCNC(=N)N)NC(=O)[C@@H](Cc1ccccc1)NC(=O)[C@H](NC(=O)[C@@H](Cc1c[nH]cn1)NC(=O)[C@@H](Cc1c[nH]cn1)NC(=O)[C@@H](Cc1ccccc1)NC(=O)[C@H](N)Cc1ccccc1)[C@H](C)CC)C(=O)N[C@@H](C(=O)N[C@H](Cc1c[nH]cn1)C(=O)N[C@H](CCCCN)C(=O)NCC(=O)N[C@H](CCCCN)C(=O)N[C@@H](C(=O)N[C@@H](C(=O)N[C@H](Cc1c[nH]cn1)C(=O)N[C@H](CCCNC(=N)N)C(=O)N[C@H](CC(C)C)C(=O)N[C@@H](C(=O)N[C@@H](C(=O)NCC(N)=O)[C@H](C)O)C(C)C)[C@H](C)CC)[C@H](C)O)C(C)C
notes: Synthetic all-D analog
B3: D-Piscidin 1 (peptide)
peptide: [dF][dF][dH][dH][dI][dF][dR]G[dI][dV][dH][dV]G[dK][dT][dI][dH][dR][dL][dV][dT]G-NH2
modifications: N-terminus assumed
SMILES: CC[C@@H](C)[C@@H](NC(=O)CNC(=O)[C@@H](CCCNC(=N)N)NC(=O)[C@@H](Cc1ccccc1)NC(=O)[C@H](NC(=O)[C@@H](Cc1c[nH]cn1)NC(=O)[C@@H](Cc1c[nH]cn1)NC(=O)[C@@H](Cc1ccccc1)NC(=O)[C@H](N)Cc1ccccc1)[C@H](C)CC)C(=O)N[C@@H](C(=O)N[C@H](Cc1c[nH]cn1)C(=O)N[C@@H](C(=O)NCC(=O)N[C@H](CCCCN)C(=O)N[C@@H](C(=O)N[C@@H](C(=O)N[C@H](Cc1c[nH]cn1)C(=O)N[C@H](CCCNC(=N)N)C(=O)N[C@H](CC(C)C)C(=O)N[C@@H](C(=O)N[C@@H](C(=O)NCC(N)=O)[C@H](C)O)C(C)C)[C@H](C)CC)[C@H](C)O)C(C)C)C(C)C
notes: also called native D-Piscidin 1
B4: D-Piscidin 1 I9K (peptide)
peptide: [dF][dF][dH][dH][dI][dF][dR]G[dK][dV][dH][dV]G[dK][dT][dI][dH][dR][dL][dV][dT]G-NH2
modifications: N-terminus assumed
SMILES: CC[C@@H](C)[C@@H](NC(=O)[C@@H](Cc1c[nH]cn1)NC(=O)[C@@H](Cc1c[nH]cn1)NC(=O)[C@@H](Cc1ccccc1)NC(=O)[C@H](N)Cc1ccccc1)C(=O)N[C@H](Cc1ccccc1)C(=O)N[C@H](CCCNC(=N)N)C(=O)NCC(=O)N[C@H](CCCCN)C(=O)N[C@@H](C(=O)N[C@H](Cc1c[nH]cn1)C(=O)N[C@@H](C(=O)NCC(=O)N[C@H](CCCCN)C(=O)N[C@@H](C(=O)N[C@@H](C(=O)N[C@H](Cc1c[nH]cn1)C(=O)N[C@H](CCCNC(=N)N)C(=O)N[C@H](CC(C)C)C(=O)N[C@@H](C(=O)N[C@@H](C(=O)NCC(N)=O)[C@H](C)O)C(C)C)[C@H](C)CC)[C@H](C)O)C(C)C)C(C)C
notes: Synthetic all-D analog; also called D-Piscidin I9K
B5: D-Dermaseptin S4 L7K (peptide)
peptide: [dA][dL][dW][dM][dT][dL][dK][dK][dK][dV][dL][dK][dA][dA][dA][dK][dA][dL][dN][dA][dV][dL][dV]G[dA][dN][dA]-NH2
modifications: N-terminus assumed
SMILES: CSCC[C@@H](NC(=O)[C@@H](Cc1c[nH]c2ccccc12)NC(=O)[C@@H](CC(C)C)NC(=O)[C@@H](C)N)C(=O)N[C@@H](C(=O)N[C@H](CC(C)C)C(=O)N[C@H](CCCCN)C(=O)N[C@H](CCCCN)C(=O)N[C@H](CCCCN)C(=O)N[C@@H](C(=O)N[C@H](CC(C)C)C(=O)N[C@H](CCCCN)C(=O)N[C@H](C)C(=O)N[C@H](C)C(=O)N[C@H](C)C(=O)N[C@H](CCCCN)C(=O)N[C@H](C)C(=O)N[C@H](CC(C)C)C(=O)N[C@H](CC(N)=O)C(=O)N[C@H](C)C(=O)N[C@@H](C(=O)N[C@H](CC(C)C)C(=O)N[C@@H](C(=O)NCC(=O)N[C@H](C)C(=O)N[C@H](CC(N)=O)C(=O)N[C@H](C)C(N)=O)C(C)C)C(C)C)C(C)C)[C@H](C)O
notes: Synthetic all-D analog; also called D-Dermaseptin S4 L7K (27-mer)
B6: D-Piscidin 1 G13K (peptide)
peptide: [dF][dF][dH][dH][dI][dF][dR]G[dI][dV][dH][dV][dK][dK][dT][dI][dH][dR][dL][dV][dT]G-NH2
modifications: N-terminus assumed
SMILES: CC[C@@H](C)[C@@H](NC(=O)CNC(=O)[C@@H](CCCNC(=N)N)NC(=O)[C@@H](Cc1ccccc1)NC(=O)[C@H](NC(=O)[C@@H](Cc1c[nH]cn1)NC(=O)[C@@H](Cc1c[nH]cn1)NC(=O)[C@@H](Cc1ccccc1)NC(=O)[C@H](N)Cc1ccccc1)[C@H](C)CC)C(=O)N[C@@H](C(=O)N[C@H](Cc1c[nH]cn1)C(=O)N[C@@H](C(=O)N[C@H](CCCCN)C(=O)N[C@H](CCCCN)C(=O)N[C@@H](C(=O)N[C@@H](C(=O)N[C@H](Cc1c[nH]cn1)C(=O)N[C@H](CCCNC(=N)N)C(=O)N[C@H](CC(C)C)C(=O)N[C@@H](C(=O)N[C@@H](C(=O)NCC(N)=O)[C@H](C)O)C(C)C)[C@H](C)CC)[C@H](C)O)C(C)C)C(C)C
notes: Synthetic all-D analog; also called D-Piscidin G13K
B7: D-Dermaseptin S4 L7K, A14K (peptide)
peptide: [dA][dL][dW][dM][dT][dL][dK][dK][dK][dV][dL][dK][dA][dK][dA][dK][dA][dL][dN][dA][dV][dL][dV]G[dA][dN][dA]-NH2
modifications: N-terminus assumed
SMILES: CSCC[C@@H](NC(=O)[C@@H](Cc1c[nH]c2ccccc12)NC(=O)[C@@H](CC(C)C)NC(=O)[C@@H](C)N)C(=O)N[C@@H](C(=O)N[C@H](CC(C)C)C(=O)N[C@H](CCCCN)C(=O)N[C@H](CCCCN)C(=O)N[C@H](CCCCN)C(=O)N[C@@H](C(=O)N[C@H](CC(C)C)C(=O)N[C@H](CCCCN)C(=O)N[C@H](C)C(=O)N[C@H](CCCCN)C(=O)N[C@H](C)C(=O)N[C@H](CCCCN)C(=O)N[C@H](C)C(=O)N[C@H](CC(C)C)C(=O)N[C@H](CC(N)=O)C(=O)N[C@H](C)C(=O)N[C@@H](C(=O)N[C@H](CC(C)C)C(=O)N[C@@H](C(=O)NCC(=O)N[C@H](C)C(=O)N[C@H](CC(N)=O)C(=O)N[C@H](C)C(N)=O)C(C)C)C(C)C)C(C)C)[C@H](C)O
notes: Synthetic all-D analog; also called D-Dermaseptin S4 L7K, A14K (27-mer)

Target: the molecule itself
Assay: RP-HPLC temperature profiling, 5 to 80 C, pH 2 (self-association)
Description: (§1) The purity of the peptides was verified by analytical RP-HPLC and the peptides were characterized by mass spectrometry (LC/MS). Crude and purified peptides were analyzed on an Agilent 1100 series liquid chromatograph (Little Falls, Del., USA). Analytical runs were performed on a Zorbax 300 SB-C₈ column (150×2.1 mm I.D.; 5 μm particle size, 300 Å pore size) from Agilent Technologies using a linear AB gradient (1% acetonitrile/min) and a flow rate of 0.25 mL/min, where eluent A was 0.2% aqueous TFA, pH 2, and eluent B was 0.18% TFA in acetonitrile. Temperature profiling analyses were performed on the same column in 3° C. increments, from 5° C. to 80° C. using a linear AB gradient of 0.5% acetonitrile/min.
Control peptide C is a monomeric random coil peptide in both aqueous and hydrophobic media; thus, its linear decrease in peptide retention behavior with increasing temperature within the range of 5° C. to 80° C. represents only the general effects of temperature due to greater solute diffusivity and enhanced mass transfer between the stationary and mobile phase at higher temperatures. To allow for these general temperature effects, the data for the control peptide was subtracted from each temperature profile, as shown in FIG. 6B. Thus, the peptide self-association parameter, PA, represents the maximum change in peptide retention time relative to the random coil peptide C. […]

| Protein | binding result |
| --- | --- |
| B1 | no binding |

Target: the molecule itself
Assay: RP-HPLC temperature profiling, self-association (dimerization/oligomerization)
Description: as §1
^atR denotes retention time in RP-HPLC at pH 2 and room temperature, and is a measure of overall peptide hydrophobicity. ^bThe mean residue molar ellipticities [θ]₂₂₂ (deg cm²/dmol) at wavelength 222 nm were measured at 5° C. in benign conditions (100 mM KCl, 50 mM NaH₂PO₄/Na₂HPO₄, pH 7.0) or in benign buffer containing 50% trifluoroethanol (TFE) by circular dichroism spectroscopy. ^cThe helical content (as a percentage) of a peptide relative to the molar ellipticity value of parent peptide (D-Piscidin 1 or D-Dermaseptin S4) in the presence of 50% TFE. ^dPA denotes self-association parameter (dimerization/oligomerization) of each peptide during RP-HPLC temperature profiling, which is the maximal retention time difference of (tR^t-tR⁵ for peptide analogs)-(tR^t-tR⁵ for control peptide C) within the temperature range; tR^t-tR⁵ is the retention time difference of a peptide at a specific temperature (tR^{t)} compared with that at 5° C. (tR⁵). The sequence of the random coil control peptide C is shown in Table 1. ^eAmphipathicity was determined by calculation of hydrophobic moment using hydrophobicity coefficients determined by reversed-phase chromatography; see methods for details. The amphipathicity values for D-Dermaseptin S4 and its analogs (residues 1-14) are shown in brackets.

| Protein | PA (self-association parameter) [min] |
| --- | --- |
| B2 | 0.69 |
| B3 | 0.78 |
| B4 | 1.29 |
| B5 | 4.8 |
| B6 | 0.95 |
| B7 | 2.29 |
